Assay [1] concerns the target HLA-DR(α1*0101,α1*1501) (human). The assay can be described thus: reference IC50 of the tracer peptide in the HLA class II competition assay.
Assay [2] has as its target HLA-DR(α1*0101,α1*1101) (human). Described as above.
Assay [3] addresses HLA-DR(α1*0101,α1*0701) (human). Put plainly: competition assay on purified HLA; tracer YKL.
In assay [4] the target is HLA-DR(α1*0101,α4*0101) (human). Put plainly: competition assay on purified HLA; tracer E2/E168.
For assay [5], the target named is HLA-DR(α1*0101,α1*0301) (human). Put plainly: competition assay on purified HLA; tracer MT (2-16).
For assay [6], the target named is HLA-DR(α1*0101,α1*1301) (human). The assay can be described thus: competition assay on purified HLA; tracer B1 (21-36).
Assay [7] has as its target HLA-DR(α1*0101,α1*1501) (human). The assay can be described thus: competition assay on purified HLA; tracer A3 (152-166).
In assay [8] the target is HLA-DR(α1*0101,α1*0101) (human). Put plainly: competition assay on purified HLA; tracer HA (307-319).
Assay [9] has as its target HLA-DR(α1*0101,α1*0401) (human). Described as above.
The target of assay [10] is HLA-DR(α1*0101,α5*0101) (human). The description is as above.
The target in assay [11] is DP (α1*0101, α1*0402) (human). Put plainly: competition assay on purified HLA; tracer bOxy 271-287.
Assay [12] concerns the target HLA-DP(α1*0101,α1*0401) (human). The description is as above.
Assay [13] addresses HLA-DR(α1*0101,α3*0101) (human). The assay can be described thus: competition assay on purified HLA; tracer LOL (191-210).
The target in assay [14] is DP401=HLA-DP(α1*0101,α1*0401) (human). The assay can be described thus: HLA class II competition binding assay, biotinylated tracer peptide.
The target in assay [15] is DP402=HLA-DR(α1*0101,α1*0402) (human). The description is as above.
The target of assay [16] is DR13=HLA-DR(α1*0101,α1*1301) (human). The description is as above.
Assay [17] concerns the target DR15=HLA-DR(α1*0101,α1*1501) (human). Described as above.
The target in assay [18] is DR1=HLA-DR(α1*0101,α1*0101) (human). The assay is described as above.
Assay [19] addresses DR3=HLA-DR(α1*0101,α1*0301) (human). The description is as above.
In assay [20] the target is DR4=HLA-DR(α1*0101,α1*0401) (human). The assay is described as above.
For assay [21], the target named is DR7=HLA-DR(α1*0101,α1*0701) (human). Described as above.
Assay [22] addresses DRB3=HLA-DR(α1*0101,α3*0101) (human). Described as above.
The target in assay [23] is DRB4=HLA-DR(α1*0101,α4*0101) (human). The assay is described as above.
For assay [24], the target named is DRB5=HLA-DR(α1*0101,α5*0101) (human). The description is as above.
For assay [25], the target named is HLA-DR(α1*0101,α1*1101) (human). The assay can be described thus: competition assay on purified HLA; tracer HA (307-319).
Assay [26] addresses DR11=HLA-DR(α1*0101,α1*1101) (human). The assay can be described thus: HLA class II competition binding assay, biotinylated tracer peptide.

11 substances from patent US20080299140A1, “Immunogenic Composition and Peptide Sequences for Prevention and Treatment of an Hsv Condition” (priority 2002, published 2008) can be followed below.

As to A3 (152-166) (peptide), in assay [1], the IC50 turned out to be 13 nM.

For the substance HA (307-319) (peptide), the IC50 in assay [2] was found to be 52 nM.

As for HSV1 9 (gB837-870) (peptide), the IC50 in [3] amounted to 229 nM; in [4], 16000 nM; in [5], 11400 nM; in assay [6], 362 nM; in assay [7], 2430 nM; in assay [8], 493 nM. In addition, the IC50 in assay [9] is 4000 nM; in [10], 559 nM; in assay [11] it was 4000 nM; in assay [12] it was 8000 nM; in assay [13], 58000 nM; in assay [14], 8000 nM. In addition, the IC50 in [15] was found to be 4000 nM; in assay [16] it was 362 nM; in [17], 2430 nM; in [18] it was 493 nM; in assay [19], 11400 nM; in [20] it was 4000 nM. In addition, the IC50 in [21] is 229 nM; in [22], 58000 nM; in [23], 16000 nM; in [24], 559 nM.

Consider HSV1 29 (gD1-23) (peptide), for which the IC50 in [3] was 894 nM; in assay [4], 52500 nM; in [5] it was 120 nM; in [6] it was over 100000 nM; in assay [7], 24500 nM; in [9], 82 nM. In addition, the IC50 in assay [25] worked out at 5250 nM; in [10], 8 nM; in [11] it was 1630 nM; in assay [12] it was 17600 nM; in assay [13], 1400 nM; in assay [14], 17600 nM. Besides, the IC50 is 1630 nM in assay [15]; 5250 nM in assay [26]; over 100000 nM in assay [16]; 24500 nM in assay [17]; 120 nM in assay [19]; 82 nM in assay [20]. For the same substance, the IC50 in [21] turned out to be 894 nM; in assay [22], 1400 nM; in assay [23], 52500 nM; in assay [24] it was 8 nM.

Consider HSV1 31 (gD22-52) (peptide), for which the IC50 was 397 nM in assay [4]; 2490 nM in [5]; over 100000 nM in assay [6]; 3 nM in assay [8]; 63 nM in assay [9]; 47000 nM in assay [11]. Further, the IC50 is 62000 nM in assay [12]; 5980 nM in assay [13]; 62000 nM in [14]; 49000 nM in [15]; over 100000 nM in [16]; 3 nM in assay [18]. Besides, the IC50 amounted to 2490 nM in assay [19], 63 nM in assay [20], 6980 nM in assay [22] and 397 nM in assay [23].

As for HSV1 33 (gD121-152) (peptide), the IC50 is 19 nM in assay [3]; 319 nM in assay [4]; 66 nM in [5]; 2 nM in assay [7]; 53 nM in assay [8]; 8 nM in [9]. Further, the IC50 in [25] amounted to 289 nM; in assay [10] it was 134 nM; in assay [11], 65 nM; in assay [12], 83 nM; in assay [13], 226 nM; in [14] it was 83 nM. Also, the IC50 in assay [15] stood at 65 nM; in assay [26] it was 289 nM; in [17], 2 nM; in assay [18], 53 nM; in assay [19] it was 66 nM; in assay [20], 6 nM. Further, the IC50 in assay [21] was determined as 19 nM; in assay [22] it was 226 nM; in assay [23] it was 319 nM; in assay [24], 134 nM.

For the substance HSV1 35 (gD287-317) (peptide), the IC50 is 3260 nM in assay [4]; 19500 nM in [5]; over 100000 nM in assay [6]; 6790 nM in [7]; 3160 nM in [8]; 600 nM in [9]. The IC50 in assay [25] is 25000 nM; in [10], 4500 nM; in assay [11], over 100000 nM; in assay [12], over 100000 nM; in [13], 5000 nM; in assay [14], over 100000 nM. Further, the IC50 was over 100000 nM in assay [15]; 25000 nM in assay [26]; over 100000 nM in [16]; 6790 nM in assay [17]; 3160 nM in assay [18]; 19500 nM in [19]. Further, the IC50 was found to be 600 nM in assay [20], 5000 nM in assay [22], 3260 nM in assay [23] and 4500 nM in assay [24].

HSV1 36 (gD49-82) (peptide): the IC50 in assay [3] is 173 nM; in assay [5], 1250 nM; in assay [6] it was over 100000 nM; in assay [7], 18 nM; in assay [8], 3 nM; in [9] it was 93 nM. The IC50 in assay [25] was 120 nM; in [10], 66 nM; in assay [11] it was 98 nM; in [12] it was 615 nM; in assay [13] it was 5000 nM; in assay [14], 615 nM. In addition, the IC50 was 98 nM in [15]; 120 nM in assay [26]; over 100000 nM in [16]; 18 nM in assay [17]; 3 nM in assay [18]; 1250 nM in assay [19]. Further, the concentration for half-maximal inhibition (IC50) in assay [20] came to 93 nM; in assay [21], 173 nM; in assay [22], 5000 nM; in assay [24], 66 nM.

HSV1 37 (gD200-234) (peptide): the IC50 in assay [3] is 200 nM; in assay [4], 3740 nM; in assay [5], 307 nM; in assay [6] it was 2050 nM; in assay [7] it was 13 nM; in assay [8], 4 nM. In addition, the IC50 in assay [9] was determined as 40 nM; in assay [25], 44 nM; in assay [10], 68 nM; in assay [11], 167 nM; in assay [13] it was 41 nM; in assay [15], 167 nM. In addition, the IC50 was found to be 44 nM in [26]; 2050 nM in assay [16]; 13 nM in [17]; 4 nM in [18]; 307 nM in [19]; 40 nM in assay [20]. For the same substance, the IC50 in assay [21] was determined as 200 nM; in assay [22], 41 nM; in [23], 3740 nM; in assay [24] it was 68 nM.

Regarding HSV1 39 (gD332-358) (peptide), the IC50 is 274 nM in assay [3]; 703 nM in assay [4]; 950 nM in [7]; 5870 nM in assay [9]; 5 nM in [25]; 31 nM in assay [10]. Moreover, the IC50 in assay [11] was over 100000 nM; in [13], 2310 nM; in assay [15], over 100000 nM; in assay [26], 5 nM; in [17] it was 950 nM; in assay [20], 5870 nM. In addition, the IC50 in assay [21] came to 274 nM; in assay [22] it was 2310 nM; in assay [23], 703 nM; in assay [24], 31 nM.

For HSV1 40 (gD228-257) (peptide), the IC50 in assay [3] was found to be 20 nM; in [4], 1160 nM; in assay [5] it was 2390 nM; in assay [6], 1590 nM; in assay [7], 2 nM; in assay [8] it was 1160 nM. The IC50 is 9920 nM in assay [9]; 39 nM in [25]; 7210 nM in assay [11]; 1360 nM in assay [12]; over 100000 nM in assay [13]; 1360 nM in [14]. The IC50 stood at 7210 nM in assay [15]; 39 nM in assay [26]; 1590 nM in assay [16]; 2 nM in assay [17]; 1160 nM in assay [18]; 2390 nM in [19]. For the same substance, the IC50 in assay [20] is 9920 nM; in assay [21], 20 nM; in assay [22], over 100000 nM; in assay [23], 1160 nM.

What is called IC50 is the concentration that inhibits the measured activity by half. Read a low IC50 as higher potency.
